Values joined by “and” are separate entries in the source; they are usually repeats but may differ in a detail not shown here. Equal entries are not always repeated.
T1: Cyno DR5Mfdel-K420N (cynomolgus monkey DR5 with deletion of amino acids 185-213 and death domain … (cynomolgus monkey))
T1 construct: Transiently expressed on the membrane of CHO-S cells; Based on NCBI XP_005562887.1
T1 chain: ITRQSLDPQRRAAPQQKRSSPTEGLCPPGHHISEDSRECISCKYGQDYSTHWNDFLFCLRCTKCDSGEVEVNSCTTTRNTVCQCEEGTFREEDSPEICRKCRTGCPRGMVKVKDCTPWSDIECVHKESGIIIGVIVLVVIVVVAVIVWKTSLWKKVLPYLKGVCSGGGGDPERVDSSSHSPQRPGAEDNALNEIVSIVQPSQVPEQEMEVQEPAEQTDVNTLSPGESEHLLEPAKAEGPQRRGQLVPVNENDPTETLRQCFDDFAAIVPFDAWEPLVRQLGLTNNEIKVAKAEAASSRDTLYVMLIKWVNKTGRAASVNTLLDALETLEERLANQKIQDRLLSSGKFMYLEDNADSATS

T2: DR5sh139-166ECDdelHis (human/mouse chimeric)
T2 construct: also called DR5sh139-166ECDdel-FcRbHisCtag
T2 chain: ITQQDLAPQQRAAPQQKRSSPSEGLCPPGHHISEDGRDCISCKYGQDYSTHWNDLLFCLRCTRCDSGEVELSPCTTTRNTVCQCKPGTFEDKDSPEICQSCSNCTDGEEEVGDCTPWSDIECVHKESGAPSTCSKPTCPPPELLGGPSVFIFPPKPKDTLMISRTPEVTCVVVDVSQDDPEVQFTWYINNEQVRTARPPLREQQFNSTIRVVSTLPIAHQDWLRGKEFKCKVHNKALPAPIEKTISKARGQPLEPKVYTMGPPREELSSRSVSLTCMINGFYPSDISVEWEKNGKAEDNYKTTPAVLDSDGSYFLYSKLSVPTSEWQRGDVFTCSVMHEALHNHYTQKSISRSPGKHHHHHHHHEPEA


Legend:
[1] = target: T1, Cyno DR5Mfdel-K420N (cynomolgus monkey …); assay: flow cytometry on CHO-S cells transiently expressing cynomolgus monkey DR5; average of n = 4, SD in brackets
DR5sh139-166ECDdelHis = target: T2, DR5sh139-166ECDdelHis; assay: ECLIA, coated DR5sh139-166ECDdelHis, detection with SULFO-TAG anti-human IgG
DR5sh79-115ECDdelHis = target: T3, DR5sh79-115ECDdelHis (human/mouse chimeric); assay: ECLIA, coated DR5sh79-115ECDdelHis, detection with SULFO-TAG anti-human IgG
T3 construct: also called DR5sh79-115ECDdel-FcRbHisCtag

Row | Binder | EC50 [1] | binding result (DR5sh139-166ECDdelHis) | binding result (DR5sh79-115ECDdelHis)
1 | IgG1-hDR5-01-G56T-E430G (antibody, V domains shown, also called first antibody; component of HexaBody-DR5/DR5) VH: EVQLQQSGAEVVKPGASVKLSCKASGFNIKDTFIHWVKQAPGQGLEWIGRIDPANTNTKYDPKFQGKATITTDTSSNTAYMELSSLRSEDTAVYYCVRGLYTYYFDYWGQGTLVTVSS VL: EIVMTQSPATLSVSPGERATLSCRASQSISNNLHWYQQKPGQAPRLLIKFASQSITGIPARFSGSGSGTEFTLTISSLQSEDFAVYYCQQGNSWPYTFGQGTKLEIKR | 0.27 µg/mL and 1.77 nM | no binding | 
2 | IgG1-hDR5-05-E430G (antibody, V domains shown, also called second antibody; component of HexaBody-DR5/DR5) VH: QVQLVQSGAEVKKPGASVKVSCKASGFNIKDTHMHWVRQAPGQRLEWIGRIDPANGNTEYDQKFQGRVTITVDTSASTAYMELSSLRSEDTAVYYCARWGTNVYFAYWGQGTLVTVSS VL: DIQLTQSPSSLSASVGDRVTITCSASSSVSYMYWYQQKPGKAPKPWIYRTSNLASGVPSRFSGSGSGTDFTLTISSLQPEDFATYYCQQYHSYPPTFGGGTKVEIKR | 0.17 µg/mL and 1.16 nM |  | no binding

Reference: patent US20230293680A1 (Genmab, published 2023)
